Values joined by “and” are separate entries in the source; they are usually repeats but may differ in a detail not shown here. Equal entries are not always repeated.
Experiments:
[1] = target: PfPV1 with Strep-tag at the C-terminus (PfPV1-Strep) (Plasmodium falciparum 3D7); test: AUC
[2] = target: PfPV1 with Strep-tag at the C-terminus (PfPV1-Strep) (Plasmodium falciparum 3D7); test: native gel or EMSA
[3] = target: PfPV1 with Strep-tag at the C-terminus (PfPV1-Strep) (Plasmodium falciparum 3D7); test: […] (pH 6.8), 200 mM NaCl, 0.5 mL/min
[4] = target: PfPV1 with Strep-tag at the C-terminus (PfPV1-Strep) (Plasmodium falciparum 3D7); test: negative-stain electron microscopy with 2D classification

PfPV1 with Strep-tag at the C-terminus (PfPV1-Strep) (natural protein)
stoichiometry N [1]: 4 and 3 and 2
weight fraction w of the component assigned to the tetramer (A4, 222 kDa) [1]: 24%
weight fraction w of the component assigned to the tetramer (B3, 215 kDa) [1]: 17.5%
weight fraction w of the component assigned to the trimer (A3, 139 kDa) [1]: 6.8%
weight fraction w of the component assigned to the trimer (B2, 141 kDa) [1]: 48.1%
stoichiometry N [2]: 3
stoichiometry N [3]: 4 and 3
stoichiometry N [4]: 4
